For 84 substances, IC50 activity group, enzyme release assay and EC50, agonistic activity, enzyme release assay results are on record in patent publication US7727960B2, “C5a receptor antagonists” (Jerini AG, priority 2003, dated 2010).

This assay concerns the target T1, human C5aR (CD88) (human, UniProt P21730 1-350).
T1 sequence (looked up): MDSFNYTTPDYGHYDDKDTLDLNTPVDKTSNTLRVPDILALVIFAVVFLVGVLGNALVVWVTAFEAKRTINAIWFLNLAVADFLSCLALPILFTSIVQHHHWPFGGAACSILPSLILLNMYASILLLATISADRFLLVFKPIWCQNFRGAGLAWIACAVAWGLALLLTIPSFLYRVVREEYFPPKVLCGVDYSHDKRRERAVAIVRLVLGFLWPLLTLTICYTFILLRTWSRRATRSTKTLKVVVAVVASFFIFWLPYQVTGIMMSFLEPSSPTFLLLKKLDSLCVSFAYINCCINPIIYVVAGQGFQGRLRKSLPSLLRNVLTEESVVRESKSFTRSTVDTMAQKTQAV
The assay is described as follows: cell-based or functional assay.
With “Ac-Phe-Orn-Aze-hle-Bta-Phe-NH2 (peptide)”, the IC50 activity group, enzyme release assay was less than 50 nM. “Ac-Phe-Orn-Chy-cha-Bta-Phe-NH2 (peptide)” had an IC50 activity group, enzyme release assay of less than 200 nM. For the substance “Ac-Phe-Orn-Chy-hle-Pff-Phe-NH2 (peptide)”, the IC50 activity group, enzyme release assay is less than 200 nM.

Regarding “Ac-Phe-Orn-Hse-cha-Bta-Phe-NH2 (peptide)”, the IC50 activity group, enzyme release assay is less than 200 nM. Still for that read-out and setting: the result for “Ac-Phe-Orn-Hyp-cha-Trp-Phe-NH2 (peptide)” reads less than 2000 nM. Still for that read-out and setting: the same measure for “Ac-Phe-Orn-Hyp-hle-Bta-Phe-NH2 (peptide)”: less than 200 nM.

Substance “Ac-Phe-Orn-Hyp-hle-Pff-Phe-NH2 (peptide)” showed an IC50 activity group, enzyme release assay of less than 200 nM. On the same count and under the same terms, the same measure for “Ac-Phe-Orn-NMA-cha-Bta-Phe-NH2 (peptide)”: less than 200 nM.

As for “Ac-Phe-Orn-NMS-cha-Bta-Phe-NH2 (peptide)”, the IC50 activity group, enzyme release assay is less than 200 nM. As for “Ac-Phe-Orn-Pip-cha-Trp-Phe-NH2 (peptide)”, the EC50, agonistic activity, enzyme release assay is greater than 100000 nM and the IC50 activity group, enzyme release assay was less than 50 nM. Ac-Phe-Orn-Pip-cha-Trp-Phe-OH (peptide) gave an IC50 activity group, enzyme release assay of less than 2000 nM. In turn, “Ac-Phe-Orn-Pro-Cha-Bta-NH-NBn-CO-NH2 (peptide)” registered an IC50 activity group, enzyme release assay of less than 200 nM. Take “Ac-Phe-Orn-Pro-cha-1Ni-Phe-NH2 (peptide)”: the IC50 activity group, enzyme release assay was less than 200 nM.

Substance “Ac-Phe-Orn-Pro-cha-Bta-1Ni-NH2 (peptide)” gave an IC50 activity group, enzyme release assay of less than 200 nM.

In turn, “Ac-Phe-Orn-Pro-cha-Bta-2Ni-NH2 (peptide)” came in with an IC50 activity group, enzyme release assay of less than 50 nM. The same measure, in the same setting: the same measure for “Ac-Phe-Orn-Pro-cha-Bta-Bhf-NH2 (peptide)”: less than 50 nM. On the same count and under the same terms, the same measure for “Ac-Phe-Orn-Pro-cha-Bta-Cha-NH2 (peptide)”: less than 200 nM; for “Ac-Phe-Orn-Pro-cha-Bta-Dff-NH2 (peptide)”: less than 50 nM; for “Ac-Phe-Orn-Pro-cha-Bta-Eaa-NH2 (peptide)”: less than 200 nM.

With “Ac-Phe-Orn-Pro-cha-Bta-Mcf-NH2 (peptide)”, the IC50 activity group, enzyme release assay is less than 200 nM. Still for that read-out and setting: the same measure for “Ac-Phe-Orn-Pro-cha-Bta-Mff-NH2 (peptide)”: less than 20 nM; for “Ac-Phe-Orn-Pro-cha-Bta-NH-CH(CH2OH)-CH2-Ph (peptide)”: less than 200 nM; for “Ac-Phe-Orn-Pro-cha-Bta-Opa-NH2 (peptide)”: less than 200 nM.

Consider “Ac-Phe-Orn-Pro-cha-Bta-Pcf-NH2 (peptide)”, for which the IC50 activity group, enzyme release assay was less than 50 nM. Take “Ac-Phe-Orn-Pro-cha-Bta-Phe-NH2 (peptide)”: the EC50, agonistic activity, enzyme release assay is greater than 100000 nM and the IC50 activity group, enzyme release assay is less than 50 nM. Substance “Ac-Phe-Orn-Pro-cha-Bta-Pmf-NH2 (peptide)” had an IC50 activity group, enzyme release assay of less than 50 nM.

As to “Ac-Phe-Orn-Pro-cha-Bta-Thi-NH2 (peptide)”, the IC50 activity group, enzyme release assay is less than 20 nM. Still for that read-out and setting: the result for “Ac-Phe-Orn-Pro-cha-Otf-Phe-NH2 (peptide)” reads less than 200 nM; that for “Ac-Phe-Orn-Pro-ctb-Bta-Phe-NH2 (peptide)”, less than 50 nM.

With “Ac-Phe-Orn-Pro-ctb-Eaa-Phe-NH2 (peptide)”, the IC50 activity group, enzyme release assay was less than 50 nM. The same measure, in the same setting: the result for “Ac-Phe-Orn-Pro-ctb-Mcf-Phe-NH2 (peptide)” reads less than 200 nM; that for “Ac-Phe-Orn-Pro-ctb-Pff-Phe-NH2 (peptide)”, less than 50 nM; that for “Ac-Phe-Orn-Pro-hle-1Ni-Phe-NH2 (peptide)”, less than 50 nM. Same read-out and setting: the same measure for “Ac-Phe-Orn-Pro-hle-6FW-Phe-NH2 (peptide)”: less than 200 nM. Turning to “Ac-Phe-Orn-Pro-hle-Bta-1Ni-NH2 (peptide)”, the IC50 activity group, enzyme release assay was less than 200 nM. Substance “Ac-Phe-Orn-Pro-hle-Bta-2Ni-NH2 (peptide)” came in with an IC50 activity group, enzyme release assay of less than 200 nM. The same measure, in the same setting: the result for “Ac-Phe-Orn-Pro-hle-Bta-5Ff-NH2 (peptide)” reads less than 200 nM. The same measure, in the same setting: the same measure for “Ac-Phe-Orn-Pro-hle-Bta-Aic-NH2 (peptide)”: less than 200 nM.

For the substance “Ac-Phe-Orn-Pro-hle-Bta-Cha-NH2 (peptide)”, the IC50 activity group, enzyme release assay was less than 200 nM.

As for “Ac-Phe-Orn-Pro-hle-Bta-Chg-NH2 (peptide)”, the IC50 activity group, enzyme release assay is less than 200 nM.

The substance “Ac-Phe-Orn-Pro-hle-Bta-Eaa-NH2 (peptide)” registered an IC50 activity group, enzyme release assay of less than 200 nM. Take “Ac-Phe-Orn-Pro-hle-Bta-Egy-NH2 (peptide)”: the IC50 activity group, enzyme release assay was less than 200 nM. Regarding “Ac-Phe-Orn-Pro-hle-Bta-Pcf-NH2 (peptide)”, the IC50 activity group, enzyme release assay is less than 200 nM. Still for that read-out and setting: the same measure for “Ac-Phe-Orn-Pro-hle-Bta-Pff-NH2 (peptide)”: less than 200 nM; for “Ac-Phe-Orn-Pro-hle-Bta-Phe-NH2 (peptide)”: less than 20 nM; for “Ac-Phe-Orn-Pro-hle-Bta-Tyr-NH2 (peptide)”: less than 200 nM. On the same count and under the same terms, the same measure for Ac-Phe-Orn-Pro-hle-Bta-phe-OH (peptide): less than 200 nM; for “Ac-Phe-Orn-Pro-hle-Dff-Phe-NH2 (peptide)”: less than 200 nM; for “Ac-Phe-Orn-Pro-hle-Eaa-Phe-NH2 (peptide)”: less than 200 nM. “Ac-Phe-Orn-Pro-hle-Egc-Phe-NH2 (peptide)”: the IC50 activity group, enzyme release assay was less than 200 nM. On the same count and under the same terms, the same measure for “Ac-Phe-Orn-Pro-hle-Egy-Phe-NH2 (peptide)”: less than 200 nM; for “Ac-Phe-Orn-Pro-hle-Egz-Phe-NH2 (peptide)”: less than 200 nM; for “Ac-Phe-Orn-Pro-hle-Mcf-2Ni-NH2 (peptide)”: less than 200 nM.

“Ac-Phe-Orn-Pro-hle-Mcf-Cha-NH2 (peptide)”: the IC50 activity group, enzyme release assay is less than 50 nM. Still for that read-out and setting: the same measure for “Ac-Phe-Orn-Pro-hle-Mcf-Pff-NH2 (peptide)”: less than 200 nM; for “Ac-Phe-Orn-Pro-hle-Mcf-Phe-NH2 (peptide)”: less than 200 nM; for “Ac-Phe-Orn-Pro-hle-Mff-Phe-NH2 (peptide)”: less than 200 nM.

As to “Ac-Phe-Orn-Pro-hle-Mmy-Phe-NH2 (peptide)”, the IC50 activity group, enzyme release assay was less than 200 nM. Consider “Ac-Phe-Orn-Pro-hle-Ocf-Phe-NH2 (peptide)”, for which the IC50 activity group, enzyme release assay is less than 200 nM. The same measure, in the same setting: the same measure for “Ac-Phe-Orn-Pro-hle-Off-Phe-NH2 (peptide)”: less than 200 nM. The same measure, in the same setting: the result for “Ac-Phe-Orn-Pro-hle-Otf-Phe-NH2 (peptide)” reads less than 200 nM. Turning to “Ac-Phe-Orn-Pro-hle-Pff-2Ni-NH2 (peptide)”, the IC50 activity group, enzyme release assay is less than 200 nM. The same measure, in the same setting: the result for “Ac-Phe-Orn-Pro-hle-Pff-Cha-NH2 (peptide)” reads less than 200 nM. On the same count and under the same terms, the same measure for “Ac-Phe-Orn-Pro-hle-Pff-Eaa-NH2 (peptide)”: less than 200 nM. Substance “Ac-Phe-Orn-Pro-hle-Pff-Mmy-NH2 (peptide)” gave an IC50 activity group, enzyme release assay of less than 200 nM. The substance “Ac-Phe-Orn-Pro-hle-Pff-Pff-NH2 (peptide)” came in with an IC50 activity group, enzyme release assay of less than 200 nM.

As to “Ac-Phe-Orn-Pro-hle-Pff-Phe-NH2 (peptide)”, the IC50 activity group, enzyme release assay is less than 200 nM. Same read-out and setting: the same measure for “Ac-Phe-Orn-Pro-hle-Tff-Phe-NH2 (peptide)”: less than 200 nM; for “Ac-Phe-Orn-Pro-omf-Bta-Phe-NH2 (peptide)”: less than 200 nM. Same read-out and setting: the result for “Ac-Phe-Orn-Ser-cha-Bta-Phe-NH2 (peptide)” reads less than 50 nM; that for “Ac-Phe-Orn-Tic-cha-Trp-Phe-NH2 (peptide)”, less than 200 nM. As for Ac-Phe-Orn-Tic-cha-Trp-Phe-OH (peptide), the IC50 activity group, enzyme release assay is less than 2000 nM. On the same count and under the same terms, the result for “Ac-Phe-Paf-Pro-cha-Bta-Phe-NH2 (peptide)” reads less than 2000 nM; that for Ac-Phe-[Orn-Asn-cha-Trp-Nle] (peptide), less than 200 nM. Same read-out and setting: the result for Ac-Phe-[Orn-Aze-cha-Trp-Nle] (peptide) reads less than 200 nM; that for Ac-Phe-[Orn-Chy-cha-Trp-Nle] (peptide), less than 200 nM.

Take Ac-Phe-[Orn-HyA-cha-Trp-Phe] (peptide): the IC50 activity group, enzyme release assay was less than 200 nM. On the same count and under the same terms, the same measure for “Ac-Phe-[Orn-Hyp(COCH2OCH2CH2OCH2CH2OCH3)-cha-Trp-Nle] (peptide)”: less than 200 nM; for “Ac-Phe-[Orn-Hyp(CONH-CH2CH(OH)-CH2OH)-cha-Trp-Nle] (peptide)”: less than 200 nM.

The substance Ac-Phe-[Orn-Hyp-Mmf-Trp-Nle] (peptide) registered an IC50 activity group, enzyme release assay of less than 200 nM.

As for Ac-Phe-[Orn-Hyp-Mmf-Trp-Phe] (peptide), the IC50 activity group, enzyme release assay is less than 200 nM. Consider Ac-Phe-[Orn-Hyp-cha-Trp-Nle] (peptide), for which the IC50 activity group, enzyme release assay is less than 20 nM. For Ac-Phe-[Orn-Hyp-cha-Trp-Phe] (peptide), the EC50, agonistic activity, enzyme release assay was greater than 1430 nM and the IC50 activity group, enzyme release assay is less than 50 nM.

The substance Ac-Phe-[Orn-Hyp-hle-Bta-Phe] (peptide) registered an IC50 activity group, enzyme release assay of less than 200 nM.
